Data on five substances can be found in article doi:10.1101/2025.11.11.687775.

Where two headings read alike, the source gives them in different places.

Test [1] addresses microtubules of primary rat hippocampal neurons (rat (endogenous in primary hippocampal neurons)) (UniProt P68370).
Test [2] shares this target. Put plainly: FRAP + reaction-diffusion simulation.
The target is the same in test [3]. Nature of the test: FRAP + reaction-diffusion simulation. This is another data set of the same source.
Test [4] deals with microtubules of Tau-knockout mouse neurons (mouse (endogenous in Tau-KO neurons)) (UniProt P68369).
In test [5] the target is microtubules of primary rat hippocampal neurons (rat (endogenous in primary hippocampal neurons)) (UniProt P68370). This is another data set of the same source.

For “GFP-tagged Tau 198A single alanine substitution mutant (natural protein)”, the FRAP recovery plateau in rat neurons (Figure 3B) in test [1] was 0.586.

In the case of “GFP-tagged Tau 198A/199A mutant (2A) (natural protein)”, the Kd in test [2] is 905 nM.

Turning to “GFP-tagged Tau 198A/199A/202A/205A mutant (4A) (natural protein)”, in test [2], the Kd was 510 nM.

In test [1], “GFP-tagged Tau 199A single alanine substitution mutant (natural protein)” showed an FRAP recovery plateau in rat neurons (Figure 3B) of 0.584. Moreover, in test [2], the Kd is 1350 nM.

As for “GFP-tagged wild-type human Tau, 0N4R isoform (AcGFP-Tau0N4R-His) (from UniProt P10636-6 1-383) (natural protein)”, in test [3], the koff was > 0.3 s⁻¹ and the kon is > 100000 M⁻¹ s⁻¹. Also, the FRAP recovery plateau in rat neurons (Figure 3B) in test [1] was 0.712. This substance had an FRAP recovery rate constant (K), n = 6 (read as Tau-KO neurons) in test [4] of 0.085. In test [2], the Kd is 3000 nM, the koff is > 0.1 s⁻¹ and the kon is > 300000 M⁻¹ s⁻¹. In addition, the FRAP recovery rate constant (K) in rat neurons (Figure 3D), n = 12 in test [5] is 0.081.
